The results in this text go back to article PMC12670495.

The target of the assay is ANT4044-DOTA (human). Put plainly: SPR; Biacore T200, single-cycle kinetics, 25 °C, HBS-EP+; antibody-DOTA captured on a Protein G chip (~50 RU); PSMA as analyte, three-point 2-fold dilution 12.5-50 nM, 40 uL/min; association 200 s, dissociation 1500 s; Langmuir 1:1 fit.
Sequence of ANT4044-DOTA (human) (heavy, as listed by the source, chain 1 of 2): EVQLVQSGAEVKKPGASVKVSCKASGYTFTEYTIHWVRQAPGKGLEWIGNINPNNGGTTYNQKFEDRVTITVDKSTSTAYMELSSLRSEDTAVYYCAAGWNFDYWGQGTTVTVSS
Sequence of ANT4044-DOTA (human) (light, as listed by the source, chain 2 of 2): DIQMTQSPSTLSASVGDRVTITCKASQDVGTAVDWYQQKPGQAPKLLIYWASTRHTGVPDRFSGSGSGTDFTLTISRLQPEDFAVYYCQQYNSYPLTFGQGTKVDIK

As to cynomolgus PSMA (natural protein), the Kd (usually the constant that tells how readily two partners part at equilibrium) came to 2.68 nM; the koff (in general, the rate constant with which the complex falls apart) came to 0.000187 s⁻¹; the kon – broadly, a measure of how fast the partners come together – was 69700 M⁻¹ s⁻¹.
